Reference: PMC7573786 (Chemical communications (Cambridge, England), 2020)
Values belong to the binder of their own block, whether it stands above or below them.

Legend:
[1] = target: CBX1 chromodomain Y26AzF/F50AzF (UniProt P83916 20-73, Y26AzF, 4-azido-L-phenylalanine (AzF) at 26 and at 50); test: fluorescence polarisation
[2] = target: CBX1 chromodomain Y26AzF/D54AzF (UniProt P83916 20-73, Y26AzF, 4-azido-L-phenylalanine (AzF) at 26 and at 54); test: fluorescence polarisation
[3] = target: T1, wild type chromodomain of CBX1 (Chromobox protein 1) (UniProt P83916 20-73); test: fluorescence polarisation
[4] = target: T1, wild type chromodomain of CBX1 …; test: ITC

- Kd [1]: 48.9 ± 8.7 µM
- Kd [2]: 50.8 ± 5.7 µM
- Kd [3]: 1.7 ± 0.2 µM
B1: TAMRA-H3K9me3 tracer peptide 2 (peptide)
chain: ARTKQTARKSTGGKA
modifications: trimethyllysine at K9; tetramethyl rhodamine (TAMRA) at the N-terminus

- Kd [4]: 5.3 ± 0.4 µM
B2: H3K9me3 peptide 3 (non-TAMRA) (peptide)
chain: ARTKQTARKSTGGKA
modifications: trimethyllysine at K9
